From patent US20210113615A1 (LUDWIG INSTITUTE FOR CANCER RESEARCH, published 2021)
Read-outs that look alike come from different tables or passages of the source.

How the values were obtained:
[1] = target: T1, Bcl-XL (B-cell lymphoma-extra-large), wildtype sequence as tested (human, UniProt Q07817 1-209); test: method not stated for this value (Example 1); Example 1, binder named 1LE4A; approximate value, method not stated
T1 construct: It is shorter than full-length Bcl-xL: E96 of the wildtype numbering stands at position 56; Bcl-XL was immobilized in SPR; also called Protein B

[2] = target: T2, Bcl-2 (BCL-2 sequence as tested in Example 5) (Homo sapiens (Human), UniProt P10415 1-207); test: not stated here (heading in the sequence table); target Bcl-2 (first of the two values, 'respectively')
T2 construct: It was immobilized in SPR

[3] = target: T1, Bcl-XL (B-cell lymphoma-extra-large), …
[4] = target: T1, Bcl-XL (B-cell lymphoma-extra-large), …; test: SPR, LD3:Bcl-XL binding interaction, sensorgrams with fitted curves
[5] = target: T1, Bcl-XL (B-cell lymphoma-extra-large), …; test: SPR, Biacore 8K; Bcl-xL immobilized, Des3 variant injected in serial dilutions
Protocol: (§1) Affinity (nM) values were calculated by Surface plasmon resonance (SPR) data on a Biacore 8K device.

[6] = target: T2, Bcl-2 (BCL-2 sequence as tested in …); test: SPR, Biacore 8K; Bcl-2 immobilized, Des3 variant injected in serial dilutions
Protocol: as §1

T2 sequence (P10415 1-207 limits assumed): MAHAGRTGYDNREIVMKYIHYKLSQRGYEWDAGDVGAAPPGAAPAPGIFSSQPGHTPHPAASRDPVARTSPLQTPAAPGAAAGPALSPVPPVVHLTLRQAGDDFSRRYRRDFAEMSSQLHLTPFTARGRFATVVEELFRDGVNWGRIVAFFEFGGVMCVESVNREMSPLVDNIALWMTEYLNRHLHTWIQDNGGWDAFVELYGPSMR
T1 sequence (Q07817 other isoform, or with tags, fused parts or gaps limits assumed): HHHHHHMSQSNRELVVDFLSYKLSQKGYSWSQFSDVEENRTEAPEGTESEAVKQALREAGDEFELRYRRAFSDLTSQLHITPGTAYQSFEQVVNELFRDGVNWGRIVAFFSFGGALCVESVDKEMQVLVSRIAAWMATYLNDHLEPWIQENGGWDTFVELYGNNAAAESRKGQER

Row | Binder | Kd [1] | Kd [2] | Kd [3] | Kd [4] | Kd [5] | Kd [6]
1 | LD3 (lead design 3: Bcl-XL binder designed on human apolipoprotein E4, PDB ID 1LE4 chain A) (designed binder, No single sentence states these identities; also called Des3; DES3) HHHHHHQRWELALGRFLEYLSWVSTLSEQVQEELLSSQVTQELRALMDETMKELKAYKSELEEQLTPVAEETRARLSKELQAAQARLGADMEDVRGRLVQYRGEVQAMLGQSTEELRVRLASHLIALQLRLIGDAFDLQKRLAVYQAGA | ~0.4 nM | 0.8 nM | 0.004 nM | ~0.004 nM | 0.004 nM | 0.8 nM
2 | Des3a (slightly weaker affinity binder, GLU124ALA) (designed binder) QRWELALGRFLAYLSWVSTLSEQVQEELLSSQVTQELRALMDETMKELKAYKSELEEQLTPVAEETRARLSKELQAAQARLGADMEDVRGRLVQYRGEVQAMLGQSTEELRVRLASHLIALQLRLIGDAFDLQKRLAVYQAGA |  |  |  |  |  | 16.8 nM
3 | Des3b (medium affinity binder, LEU235ALA) (designed binder) QRWELALGRFLEYLSWVSTLSEQVQEELLSSQVTQELRALMDETMKELKAYKSELEEQLTPVAEETRARLSKELQAAQARLGADMEDVRGRLVQYRGEVQAMLGQSTEELRVRLASHLIALQARLIGDAFDLQKRLAVYQAGA |  |  |  |  |  | 64.1 nM
4 | Des3c (weakest affinity Des3 binder, ASP240ALA) (designed binder) QRWELALGRFLEYLSWVSTLSEQVQEELLSSQVTQELRALMDETMKELKAYKSELEEQLTPVAEETRARLSKELQAAQARLGADMEDVRGRLVQYRGEVQAMLGQSTEELRVRLASHLIALQLRLIGAAFDLQKRLAVYQAGA |  |  |  |  |  | 147 nM
